# Ends that are not written are not given here. HPMA copolymer = HPMA copolymer made by RAFT copolymerization of HPMA with N-(3-aminopropyl)methacrylamide (APMA), bearing maleimide groups for grafting
# Assay: Pharmacokinetics at each cycle of a four-round treatment regimen
# Assay type: in vivo, female mice
# Design: PK curves: unit not given here
substance,measurement,setting,value
"P-CM2-Cy3: Cy3-labeled P-CM2 (C(HPMA copolymer)YGGEVSALEKEVSALEKKNSALEKEVSALEKEVSALEK; also: Cy3 label on conjugate, position not given here)",PK curves,"Round 1, Time 0.041667 Day, replicate 1",163.747
same,PK curves,"Round 1, Time 0.041667 Day, replicate 2",180.755
same,PK curves,"Round 1, Time 0.041667 Day, replicate 3",215.82
same,PK curves,"Round 1, Time 0.041667 Day, replicate 4",227.965
same,PK curves,"Round 1, Time 0.041667 Day, replicate 5",272.14
same,PK curves,"Round 1, Time 0.083333 Day, replicate 1",152.881
same,PK curves,"Round 1, Time 0.083333 Day, replicate 2",155.096
same,PK curves,"Round 1, Time 0.083333 Day, replicate 3",158.378
same,PK curves,"Round 1, Time 0.083333 Day, replicate 4",173.813
same,PK curves,"Round 1, Time 0.083333 Day, replicate 5",181.609
same,PK curves,"Round 1, Time 0.166667 Day, replicate 1",117.124
same,PK curves,"Round 1, Time 0.166667 Day, replicate 2",133.5
same,PK curves,"Round 1, Time 0.166667 Day, replicate 3",138.292
same,PK curves,"Round 1, Time 0.166667 Day, replicate 4",141.138
same,PK curves,"Round 1, Time 0.166667 Day, replicate 5",149.467
same,PK curves,"Round 1, Time 0.25 Day, replicate 1",99.512
same,PK curves,"Round 1, Time 0.25 Day, replicate 2",115.311
same,PK curves,"Round 1, Time 0.25 Day, replicate 3",115.69
same,PK curves,"Round 1, Time 0.25 Day, replicate 4",124.268
same,PK curves,"Round 1, Time 0.25 Day, replicate 5",126.538
same,PK curves,"Round 1, Time 0.333333 Day, replicate 1",72.638
same,PK curves,"Round 1, Time 0.333333 Day, replicate 2",80.332
same,PK curves,"Round 1, Time 0.333333 Day, replicate 3",81.864
same,PK curves,"Round 1, Time 0.333333 Day, replicate 4",87.045
same,PK curves,"Round 1, Time 0.333333 Day, replicate 5",96.736
same,PK curves,"Round 1, Time 0.5 Day, replicate 1",53.965
same,PK curves,"Round 1, Time 0.5 Day, replicate 2",58.639
same,PK curves,"Round 1, Time 0.5 Day, replicate 3",59.336
same,PK curves,"Round 1, Time 0.5 Day, replicate 4",66.884
same,PK curves,"Round 1, Time 0.5 Day, replicate 5",78.186
same,PK curves,"Round 1, Time 1 Day, replicate 1",21.997
same,PK curves,"Round 1, Time 1 Day, replicate 2",25.01
same,PK curves,"Round 1, Time 1 Day, replicate 3",29.67
same,PK curves,"Round 1, Time 1 Day, replicate 4",31.811
same,PK curves,"Round 1, Time 1 Day, replicate 5",36.626
same,PK curves,"Round 1, Time 2 Day, replicate 1",11.902
same,PK curves,"Round 1, Time 2 Day, replicate 2",17.163
same,PK curves,"Round 1, Time 2 Day, replicate 3",19.932
same,PK curves,"Round 1, Time 2 Day, replicate 4",21.481
same,PK curves,"Round 1, Time 2 Day, replicate 5",24.221
same,PK curves,"Round 1, Time 3 Day, replicate 1",3.355
same,PK curves,"Round 1, Time 3 Day, replicate 2",5.764
same,PK curves,"Round 1, Time 3 Day, replicate 3",7.718
same,PK curves,"Round 1, Time 3 Day, replicate 4",11.103
same,PK curves,"Round 1, Time 3 Day, replicate 5",11.877
same,AUC0-t,"Round 1, same",2910.449 ± 479.173 ng·h/mL
same,AUC0-∞,"Round 1, same",3143.497 ± 607.036 ng·h/mL
same,MRT0-t,"Round 1, same",17.874 ± 1.409 h
same,MRT0-∞,"Round 1, same",23.669 ± 4.167 h
same,T1/2z,"Round 1 of four-round Nanothread-1→Nanothread-2 regimen, blood fluorescence, DAS 2.0, mean ± SD, n = 5",19.104 ± 3.483 h
same,PK curves,"Round 2, Time 0.041667 Day, replicate 1",166.289
same,PK curves,"Round 2, Time 0.041667 Day, replicate 2",169.535
same,PK curves,"Round 2, Time 0.041667 Day, replicate 3",192.765
same,PK curves,"Round 2, Time 0.041667 Day, replicate 4",283.095
same,PK curves,"Round 2, Time 0.041667 Day, replicate 5",308.888
same,PK curves,"Round 2, Time 0.083333 Day, replicate 1",129.263
same,PK curves,"Round 2, Time 0.083333 Day, replicate 2",143.311
same,PK curves,"Round 2, Time 0.083333 Day, replicate 3",159.105
same,PK curves,"Round 2, Time 0.083333 Day, replicate 4",167.258
same,PK curves,"Round 2, Time 0.083333 Day, replicate 5",213.448
same,PK curves,"Round 2, Time 0.166667 Day, replicate 1",118.029
same,PK curves,"Round 2, Time 0.166667 Day, replicate 2",120.594
same,PK curves,"Round 2, Time 0.166667 Day, replicate 3",139.935
same,PK curves,"Round 2, Time 0.166667 Day, replicate 4",140.364
same,PK curves,"Round 2, Time 0.166667 Day, replicate 5",140.694
same,PK curves,"Round 2, Time 0.25 Day, replicate 1",88.6458
same,PK curves,"Round 2, Time 0.25 Day, replicate 2",101.112
same,PK curves,"Round 2, Time 0.25 Day, replicate 3",104.483
same,PK curves,"Round 2, Time 0.25 Day, replicate 4",106.877
same,PK curves,"Round 2, Time 0.25 Day, replicate 5",110.672
same,PK curves,"Round 2, Time 0.333333 Day, replicate 1",69.5736
same,PK curves,"Round 2, Time 0.333333 Day, replicate 2",78.4476
same,PK curves,"Round 2, Time 0.333333 Day, replicate 3",88.3019
same,PK curves,"Round 2, Time 0.333333 Day, replicate 4",89.2405
same,PK curves,"Round 2, Time 0.333333 Day, replicate 5",90.1636
same,PK curves,"Round 2, Time 0.5 Day, replicate 1",43.1833
same,PK curves,"Round 2, Time 0.5 Day, replicate 2",45.6973
same,PK curves,"Round 2, Time 0.5 Day, replicate 3",51.9942
same,PK curves,"Round 2, Time 0.5 Day, replicate 4",68.9589
same,PK curves,"Round 2, Time 0.5 Day, replicate 5",80.0862
same,PK curves,"Round 2, Time 1 Day, replicate 1",16.0352
same,PK curves,"Round 2, Time 1 Day, replicate 2",27.0822
same,PK curves,"Round 2, Time 1 Day, replicate 3",31.0181
same,PK curves,"Round 2, Time 1 Day, replicate 4",36.116
same,PK curves,"Round 2, Time 1 Day, replicate 5",40.972
same,PK curves,"Round 2, Time 2 Day, replicate 1",12.4543
same,PK curves,"Round 2, Time 2 Day, replicate 2",13.9537
same,PK curves,"Round 2, Time 2 Day, replicate 3",16.9804
same,PK curves,"Round 2, Time 2 Day, replicate 4",22.3399
same,PK curves,"Round 2, Time 2 Day, replicate 5",24.6061
same,PK curves,"Round 2, Time 3 Day, replicate 1",4.968
same,PK curves,"Round 2, Time 3 Day, replicate 2",5.058
same,PK curves,"Round 2, Time 3 Day, replicate 3",5.667
same,PK curves,"Round 2, Time 3 Day, replicate 4",9.298
same,PK curves,"Round 2, Time 3 Day, replicate 5",13.6533
same,AUC0-t,"Round 2, same",2845.842 ± 670.957 ng·h/mL
same,AUC0-∞,"Round 2, same",3070.777 ± 804.281 ng·h/mL
same,MRT0-t,"Round 2, same",17.76 ± 1.068 h
same,MRT0-∞,"Round 2, same",23.374 ± 3.332 h
same,T1/2z,"Round 2, same",18.965 ± 3.022 h

# — PMC10980815, “Cell surface patching via CXCR4-targeted nanothreads for cancer metastasis inhibition” (Nature Communications, 2024)
